The numbers were not newly measured in paper PMC10466379, which cites them from elsewhere.

Some targets named below: Lys39 (UniProt position 39, EFPGGKIEMGE); His137 (UniProt position 164, CGIIAHTKENQ); His150 (UniProt position 177, LKLCSH-----); His35 (UniProt position 62, AESNSHHAPLS); His36 (UniProt position 63, ESNSHHAPLSD); His50 (UniProt position 77, GSSYPHWFTNG); Glu96 (UniProt position 123, DHYLLEFPTFP); His82 (UniProt position 109, DRPPKHSKDGN); His104 (UniProt position 131, TFPDGHDYKFD); His72 (UniProt position 73, GINTAHKARQV); His60 (UniProt position 60, NETQTHQQVGN); His121 (UniProt position 203, KPNNTHEQHLR); His46 (UniProt position 128, TPETKHPKKGV); Glu92 (UniProt position 174, RGLAYEYADGK); Glu36 (UniProt position 118, PMTFRELLVDT); Glu103 (UniProt position 185, MVNEAEVRQGL); Glu66 (UniProt position 148, FTKKMEENAKK).

Assay in all cases: not stated (values taken from the PKAD database; the article says PKAD values come mainly from NMR or IR titrations)
Holding throughout (settings): not stated (the curated set excludes proteins with ligands, nucleic acids and structural metal ions)

Series [1] has as its target His92 (UniProt position 119, NGKTDHYLLQF).
Series [2] addresses His92 (UniProt position 119, NGKTDHYLLEF).
For series [3], the target named is His124 (UniProt position 206, NTHEQHLRKSE).
For series [4], the target named is His8 (UniProt position 90, STKKLHKEPAT).
Series [5] addresses His8 (UniProt position 90, STKKLHAEPAT).
Series [6] deals with His124 (UniProt position 206, NTHEQHLRASE).
Series [7] deals with His124 (UniProt position 206, NTHEQHLRKAE).

Consider “MutT protein (Escherichia coli (inferred from PDB 1MUT; not stated in the article))”, for which the pKa in the series with Lys39 is reported as 8.4.

For the substance “alpha-sarcin E96Q (parent PDB 1DE3) (Aspergillus giganteus (inferred from PDB 1DE3; not stated in the article); E96Q)”, the pKa with His137 is reported as 5.9; in the series with His150, 7.9; with His35, 6.3; with His36, 7.3; with His50 it was 6.4; with His92 [1], 7.2.

Regarding “alpha-sarcin H50Q (parent PDB 1DE3) (Aspergillus giganteus (inferred from PDB 1DE3; not stated in the article); H50Q)”, the pKa with Glu96 is recorded as 5; in the series with His137 it was 6.1; with His150, 7.3; with His35, 6.2; with His82, 7.4; with His92 [2], 7.3.

Regarding “alpha-sarcin H50Q/H137Q (parent PDB 1DE3) (Aspergillus giganteus (inferred from PDB 1DE3; not stated in the article); H50Q;H137Q)”, the pKa in the series with Glu96 is 5.4; with His104, 7.3; with His150, 7.6; in the series with His35, 6.3; with His36, 7.3; with His82 it was 7. In addition, in the series with His92 [2], the pKa is given as 7.4.

Turning to “alpha-sarcin H137Q (parent PDB 1DE3) (Aspergillus giganteus (inferred from PDB 1DE3; not stated in the article); H137Q)”, the pKa with Glu96 was 5.7; in the series with His104, 6.6; with His150, 7.7; with His35, 6.3; with His82 it was 7.4; in the series with His92 [2], 7.1.

Consider “bovine heart phosphotyrosyl phosphatase (low molecular weight PTPase) (Bos taurus)”, for which, in the series with His72, the pKa is given as 9.19.

Take “family 11 xylanase (PDB 1H4G) (Bacillus agaradhaerens (inferred from PDB 1H4G; not stated in the article))”: the pKa with His60 is recorded as 4.01.

With “staphylococcal nuclease D77A (parent PDB 1STN) (Staphylococcus aureus (inferred from PDB 1STN; not stated in the article); D77A)”, the pKa with His121 is given as 5.89; in the series with His124 [3], 5.77; in the series with His46, 6.43; with His8 [4], 6.44.

For the substance “staphylococcal nuclease D77N (parent PDB 1STN) (Staphylococcus aureus (inferred from PDB 1STN; not stated in the article); D77N)”, the pKa in the series with His121 is on record as 5.77; with His124 [3] it was 5.81; in the series with His46 it was 6.53; with His8 [4], 6.29.

With “staphylococcal nuclease E73A (parent PDB 1STN) (Staphylococcus aureus (inferred from PDB 1STN; not stated in the article); E73A)”, the pKa in the series with His121 is reported as 5.24; with His124 [3], 5.63; with His46, 6.51; with His8 [4], 6.47.

As to “staphylococcal nuclease E101A (parent PDB 1STN) (Staphylococcus aureus (inferred from PDB 1STN; not stated in the article); E101A)”, the pKa is reported as 5.26 with His121, 5.04 with His124 [3], 6.4 with His46 and 6.49 in the series with His8 [4].

On to “staphylococcal nuclease K9A (parent PDB 1STN) (Staphylococcus aureus (inferred from PDB 1STN; not stated in the article); K9A)”, for which the pKa with His121 was 5.48; with His124 [3], 5.67; in the series with His46, 6.47; with His8 [5] it was 6.73.

Consider “staphylococcal nuclease K127A (parent PDB 1STN) (Staphylococcus aureus (inferred from PDB 1STN; not stated in the article); K127A)”, for which the pKa was 5.3 with His121, 5.99 with His124 [6], 6.45 with His46 and 6.51 in the series with His8 [4].

Turning to “staphylococcal nuclease S128A (parent PDB 1STN) (Staphylococcus aureus (inferred from PDB 1STN; not stated in the article); S128A)”, the pKa with His121 is 5.25; in the series with His124 [7], 5.71; in the series with His46, 6.49; in the series with His8 [4], 6.53.

For the substance “staphylococcal nuclease Y91A (parent PDB 1STN) (Staphylococcus aureus (inferred from PDB 1STN; not stated in the article); Y91A)”, the pKa is listed as 5.32 with His121, 5.82 with His124 [3], 6.52 in the series with His46 and 6.42 with His8 [4].

For the substance “staphylococcal nuclease Y91F (parent PDB 1STN) (Staphylococcus aureus (inferred from PDB 1STN; not stated in the article); Y91F)”, the pKa is 6.04 in the series with His121, 5.65 with His124 [3], 6.39 with His46 and 6.36 in the series with His8 [4].

Turning to “staphylococcal nuclease Y93A (parent PDB 1STN) (Staphylococcus aureus (inferred from PDB 1STN; not stated in the article); Y93A)”, the pKa in the series with His121 was 5.94; with His124 [3], 5.68; in the series with His46 it was 6.48; with His8 [4], 6.45.

Turning to “staphylococcal nuclease Y93F (parent PDB 1STN) (Staphylococcus aureus (inferred from PDB 1STN; not stated in the article); Y93F)”, the results for the pKa in the series with His124 [3], in the series with His46 and with His8 [4] were 5.52, 6.42 and 6.46, respectively.

As to “staphylococcal nuclease variant I92E (parent PDB 2LKV) (Staphylococcus aureus (inferred from PDB 2LKV; not stated in the article); I92E)”, the pKa in the series with Glu92 is given as 9.

For “staphylococcal nuclease variant L36E (parent PDB 2LKV) (Staphylococcus aureus (inferred from PDB 2LKV; not stated in the article); L36E)”, the pKa with Glu36 was 8.7.

In the case of “staphylococcal nuclease variant L103E (parent PDB 2LKV) (Staphylococcus aureus (inferred from PDB 2LKV; not stated in the article); L103E)”, the pKa with Glu103 is reported as 8.9.

For the substance “staphylococcal nuclease variant V66E (parent PDB 2LKV) (Staphylococcus aureus (inferred from PDB 2LKV; not stated in the article); V66E)”, the pKa with Glu66 is 8.5.

Broadly, the pKa is the pH at which an ionisable group is half protonated.
